{"source": "paper PMC12487280", "proteins": {"B1": {"name": "UBAP2L: OSMI-1 (protein)", "parent chain": "MMTSVGTNRARGNWEQPQNQNQTQHKQRPQATAEQIRLAQMISDHNDADFEEKVKQLIDITGKNQDECVIALHDCNGDVNRAINVLLEGNPDTHSWEMVGKKKGVSGQKDGGQTESNEEGKENRDRDRDYSRRRGGPPRRGRGASRGREFRGQENGLDGTKSGGPSGRGTERGRRGRGRGRGGSGRRGGRFSAQGMGTFNPADYAEPANTDDNYGNSSGNTWNNTGHFEPDDGTSAWRTATEEWGTEDWNEDLSETKIFTASNVSSVPLPAENVTITAGQRIDLAVLLGKTPSTMENDSSNLDPSQAPSLAQPLVFSNSKQTAISQPASGNTFSHHSMVSMLGKGFGDVGEAKGGSTTGSQFLEQFKTAQALAQLAAQHSQSGSTTTSSWDMGSTTQSPSLVQYDLKNPSDSAVHSPFTKRQAFTPSSTMMEVFLQEKSPAVATSTAAPPPPSSPLPSKSTSAPQMSPGSSDNQSSSPQPAQQKLKQQKKKASLTSKIPALAVEMPGSADISGLNLQFGALQFGSEPVLSDYESTPTTSASSSQAPSSLYTSTASESSSTISSNQSQESGYQSGPIQSTTYTSQNNAQGPLYEQRSTQTRRYPSSISSSPQKDLTQAKNGFSSVQATQLQTTQSVEGATGSAVKSDSPSTSSIPPLNETVSAASLLTTTNQHSSSLGGLSHSEEIPNTTTTQHSSTLSTQQNTLSSSTSSGRTSTSTLLHTSVESEANLHSSSSTFSTTSSTVSAPPPVVSVSSSLNSGSSLGLSLGSNSTVTASTRSSVATTSGKAPPNLPPGVPPLLPNPYIMAPGLLHAYPPQVYGYDDLQMLQTRFPLDYYSIPFPTPTTPLTGRDGSLASNPYSGDLTKFGRGDASSPAPATTLAQPQQNQTQTHHTTQQTFLNPALPPGYSYTSLPYYTGVPGLPSTFQYGPAVFPVAPTSSKQHGVNVSVNASATPFQQPSGYGSHGYNTGVSVTSSNTGVPDISGSVYSKTQQSFEKQGFHSGTPAASFNLPSALGSGGPINPATAAAYPPAPFMHILTPHQQPHSQILHHHLQQDGQTGSGQRSQTSSIPQKPQTNKSAYNSYSWGAN"}, "B2": {"name": "UBAP2L: OGT knockdown (protein)", "parent chain": "B1 parent chain"}, "B3": {"name": "UBAP2L: OGA knockdown (protein)", "parent chain": "B1 parent chain"}, "B4": {"name": "UBAP2L: shOGT (protein)", "parent chain": "B1 parent chain"}, "B5": {"name": "UBAP2L: UBAP2L-MUT (S305A) (protein)", "parent chain": "B1 parent chain"}, "B6": {"name": "UBAP2L: S305A (protein)", "parent chain": "B1 parent chain"}, "B7": {"name": "UBAP2L: shOGA (protein)", "parent chain": "B1 parent chain"}}, "key": {"[1]": {"assay": "Western blot of UBAP2L, ccRCC cells", "conditions": "control: shCtrl / untreated"}, "[2]": {"assay": "CHX-chase, Western blot, ccRCC cells", "conditions": "glycan lost; control: WT / shCtrl / untreated"}, "[3]": {"assay": "UBAP2L/G3BP1 immunostaining, granules per cell", "conditions": "glycan lost; control: sunitinib without OSMI-1"}, "[4]": {"assay": "Flag IP, HA-Ub blot, MG132", "conditions": "control: shCtrl"}, "qPCR, 786-O and Caki-1": {"assay": "qPCR, 786-O and Caki-1", "conditions": "glycan lost; control: UBAP2L-WT overexpression"}, "[5]": {"assay": "CCK-8 dose response, 786-O and Caki-1", "conditions": "glycan lost; control: UBAP2L-WT overexpression"}, "[6]": {"assay": "UBAP2L/G3BP1 immunostaining after sunitinib", "conditions": "glycan lost; control: UBAP2L-WT overexpression"}}, "data": [{"protein": "B1", "values": [{"measurement": "expression_or_secretion", "setting": "[1]; glycan lost", "result": "decreases"}, {"measurement": "degradation_or_half_life", "setting": "[2]", "result": "decreases"}, {"measurement": "other: stress granule formation", "setting": "[3]", "result": "decreases"}]}, {"protein": "B2", "values": [{"measurement": "expression_or_secretion", "setting": "[1]; glycan lost", "result": "decreases"}, {"measurement": "degradation_or_half_life", "setting": "[2]", "result": "decreases"}]}, {"protein": "B3", "values": [{"measurement": "expression_or_secretion", "setting": "[1]; glycan gained", "result": "increases"}]}, {"protein": "B4", "values": [{"measurement": "other: ubiquitination", "setting": "[4]; glycan lost", "result": "increases"}]}, {"protein": "B5", "values": [{"measurement": "other: Melk mRNA level", "setting": "qPCR, 786-O and Caki-1", "result": "decreases"}]}, {"protein": "B6", "values": [{"measurement": "degradation_or_half_life", "setting": "[2]", "result": "decreases"}, {"measurement": "other: sunitinib resistance of cells, IC50", "setting": "[5]", "result": "decreases"}, {"measurement": "other: stress granule formation", "setting": "[6]", "result": "decreases"}]}, {"protein": "B7", "values": [{"measurement": "other: ubiquitination", "setting": "[4]; glycan gained", "result": "decreases"}]}]}
